Experimental findings from US20170304435A1 (GOVERNING COUNCIL OF THE UNIVERSITY OF TORONTO, published 2017) are described below.

Positions count from the first letter of the chain named. Names and notes keep the numbering of the source.

Data set [1] has as its target T1, TRAF2, endogenous in Jurkat cells (UniProt Q12933 2-501, limits assumed).
T1 construct: Endogenous protein probed by immunoblot with rabbit anti-TRAF2 (sc-876)
T1 sequence (looked up): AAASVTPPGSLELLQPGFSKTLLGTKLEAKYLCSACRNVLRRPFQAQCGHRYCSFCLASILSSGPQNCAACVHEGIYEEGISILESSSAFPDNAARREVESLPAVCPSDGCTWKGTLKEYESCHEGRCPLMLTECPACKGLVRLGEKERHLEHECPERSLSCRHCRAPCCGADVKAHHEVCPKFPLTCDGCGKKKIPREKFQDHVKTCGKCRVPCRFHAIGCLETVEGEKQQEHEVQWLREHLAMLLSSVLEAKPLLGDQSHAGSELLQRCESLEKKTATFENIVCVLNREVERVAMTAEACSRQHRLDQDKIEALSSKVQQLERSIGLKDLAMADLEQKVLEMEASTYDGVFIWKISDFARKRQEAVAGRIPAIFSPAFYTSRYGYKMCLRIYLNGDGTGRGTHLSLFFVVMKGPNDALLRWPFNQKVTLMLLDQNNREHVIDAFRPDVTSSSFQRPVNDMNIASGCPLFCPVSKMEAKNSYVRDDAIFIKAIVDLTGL
The data set can be described thus: FLAG-TIFA immunoprecipitation from Jurkat cells, immunoblot for TRAF2.
Procedure: Briefly, cells were lysed in 50 mM Hepes-KOH pH 8.0, 100 mM KCl, 2 mM EDTA, 0.1% NP40, 10% glycerol. Soluble cell lysates were pre-cleared for 2 hr with mouse IgG agarose (Sigma) and immunoprecipitated overnight at 4° C. Proteins eluted using 0.5 M NH₄OH pH 11 (for mass-spectrometry), or 3× FLAG-peptide (Sigma) (immunoblot analysis). […] Data were analyzed by Scaffold PTM (Proteome).

Data set [2] deals with the molecule itself. The data set can be described thus: native PAGE and FLAG immunoblot, HBP-treated Jurkat cells. Background: A western blot detects proteins with antibodies after separation by electrophoresis.
Data set [3] has as its target T2, TRAF6 (ubiquitin ligase, tumor necrosis factor receptor-associated factor 6), endogenous in Jurkat or 293T … (UniProt Q9Y4K3 1-522).
T2 construct: Endogenous protein detected by immunoblot or immunostaining with mouse anti-TRAF6 (sc-8409)
T2 sequence (looked up): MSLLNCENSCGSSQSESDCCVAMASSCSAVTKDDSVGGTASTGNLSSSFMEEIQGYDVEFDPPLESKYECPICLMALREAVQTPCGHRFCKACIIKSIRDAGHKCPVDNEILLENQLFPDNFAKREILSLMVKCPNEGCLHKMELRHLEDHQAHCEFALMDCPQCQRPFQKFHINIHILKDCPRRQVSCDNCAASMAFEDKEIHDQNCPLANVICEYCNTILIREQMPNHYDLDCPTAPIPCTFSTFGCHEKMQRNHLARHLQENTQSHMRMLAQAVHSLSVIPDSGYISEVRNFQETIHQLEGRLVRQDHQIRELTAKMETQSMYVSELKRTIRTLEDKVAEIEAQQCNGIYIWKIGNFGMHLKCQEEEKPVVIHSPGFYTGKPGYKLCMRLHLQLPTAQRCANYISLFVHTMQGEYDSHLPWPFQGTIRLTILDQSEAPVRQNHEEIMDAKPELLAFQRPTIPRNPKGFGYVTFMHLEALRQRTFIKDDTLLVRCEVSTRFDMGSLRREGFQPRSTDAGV
Put plainly: FLAG immunoprecipitation from HBP-treated Jurkat cells, immunoblot for TRAF6.
Procedure: Briefly, cells were lysed in 50 mM Hepes-KOH pH 8.0, 100 mM KCl, 2 mM EDTA, 0.1% NP40, 10% glycerol. Soluble cell lysates were pre-cleared for 2 hr with mouse IgG agarose (Sigma) and immunoprecipitated overnight at 4° C. Proteins eluted using 0.5 M NH₄OH pH 11 (for mass-spectrometry), or 3× FLAG-peptide (Sigma) (immunoblot analysis).

Data set [4] deals with the molecule itself. Put plainly: confocal microscopy of FLAG-TIFA aggregates in HBP-treated 293T cells.
Data set [5] deals with the molecule itself. Put plainly: confocal microscopy of TIFA aggregates in HBP-treated 293T cells.

B1: FLAG-TIFA wild type (TRAF-interacting forkhead associated protein A with one N-terminal FLAG sequence), from HBP-treated cells (other, not shown: small tags and cut ends)
chain: MTSFEDADTEETVTCLQMTVYHPGQLQCGIFQSISFNREKLPSSEVVKFGRNSNICHYTFQDKQVSRVQFSLQLFKKFNSSVLSFEIKNMSKKTNLIVDSRELGYLNKMDLPYRCMVRFGEYQFLMEKEDGESLEFFETQFILSPRSLLQENNWPPHRPIPEYGTYSLCSSQSSSPTEMDENES
modifications: phospho-threonine 9 (pT9), found only after treatment with HBP
notes: Forms oligomers after HBP; also called FLAG-TIFA wildtype (wt); Wt
As for B1, the binding result in data set [1] is “no binding”; in data set [2], “binds”.

B2: FLAG-TIFA E178A (mutation in the TRAF6 binding site) (other, not shown: small tags and cut ends)
chain: B1 chain with E178A
notes: Point mutant of FLAG-TIFA; stably expressed with endogenous TIFA knocked down; also called TRAF6 (E178A) mutant
Regarding B2, the binding result in data set [3] is “no binding”; in data set [4] it was “binds”.

B3: FLAG-TIFA T9A (other, not shown: small tags and cut ends)
chain: B1 chain with T9A
notes: Point mutant of FLAG-TIFA made with QuickChange II; stably expressed with endogenous TIFA knocked down
On to B3, for which the binding result in data set [3] and in data set [5] was “no binding” in each case.

B4: FLAG-TIFA G50E/S66A (mutations in the FHA domain) (other, not shown: small tags and cut ends)
chain: B1 chain with G50E, S66A
notes: Double point mutant of FLAG-TIFA; stably expressed with endogenous TIFA knocked down; also called FHA mutant
B4: the binding result in data set [3] was “no binding”.
